Results taken from patent US20200109196A1 (MOGAM INSTITUTE FOR BIOMEDICAL RESEARCH, published 2020).

T1: recombinant human CEACAM-1/CD66a protein (R&D systems; Cat. No. 2244-CM) (human, UniProt P13688 35-428)
T1 construct: Bought protein; captured on anti-His (His1K) biosensors in the Octet assay, so it carries a His tag; also called HCCM1; recombinant CEACAM-1/CD66a protein
T1 sequence (looked up): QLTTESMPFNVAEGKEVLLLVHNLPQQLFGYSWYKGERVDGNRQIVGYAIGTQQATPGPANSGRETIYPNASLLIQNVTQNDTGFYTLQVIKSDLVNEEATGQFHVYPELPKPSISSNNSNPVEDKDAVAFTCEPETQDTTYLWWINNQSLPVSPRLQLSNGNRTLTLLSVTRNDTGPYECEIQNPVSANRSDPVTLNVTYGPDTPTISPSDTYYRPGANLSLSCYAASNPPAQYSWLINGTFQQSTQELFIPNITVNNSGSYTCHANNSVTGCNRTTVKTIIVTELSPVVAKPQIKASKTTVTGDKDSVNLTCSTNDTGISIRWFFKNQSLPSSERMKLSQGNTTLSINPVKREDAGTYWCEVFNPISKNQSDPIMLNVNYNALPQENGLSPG

T2: mCCM1
T2 construct: also called mouse CCM1; mouse CEACAM1/CD66a protein (Sino Biological); not shown: the vendor's polyhistidine tag
T2 chain: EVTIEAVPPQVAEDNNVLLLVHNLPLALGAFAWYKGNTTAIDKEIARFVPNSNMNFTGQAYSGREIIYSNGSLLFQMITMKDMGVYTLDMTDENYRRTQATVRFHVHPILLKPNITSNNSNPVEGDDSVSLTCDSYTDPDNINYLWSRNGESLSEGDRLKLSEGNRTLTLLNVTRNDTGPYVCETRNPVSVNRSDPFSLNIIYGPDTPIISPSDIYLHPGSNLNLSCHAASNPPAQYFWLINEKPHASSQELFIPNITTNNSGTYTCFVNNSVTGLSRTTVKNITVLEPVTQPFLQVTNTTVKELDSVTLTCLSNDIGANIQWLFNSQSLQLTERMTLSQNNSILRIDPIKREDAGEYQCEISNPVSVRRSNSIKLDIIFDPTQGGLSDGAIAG

B1: 4R9_H4-n20HC+4R26LC (antibody, human IgG4 S228P, lambda, V domains shown)
VH: EVQLLESGGGLVQPGGSLRLSCAASGFNFSNYAMSWVRQAPGKGLEWVSVISHGGGSIYYADSVKGRLTISRDNSKNTLYLQMNSLRAEDTAVYYCARDPTKGYAPTFDYWGQGTLVTVSS
VL: QSVLTQPPSASGTPGQRVTISCSGSSSNIGNNYVSWYQQLPGTAPKLLIYADSKRLSGVPDRFSGSKSGTSASLAISGLRSEDEADYYCGAWDGRLNGYVFGGGTKLTVLG
B2: C16 (antibody, human IgG4 S228P, lambda, V domains shown)
VH: EVQLLESGGGLVQPGGSLRLSCAASGFTFSNYSMSWVRQAPGKGLEWVSAISSDGGSKYYADSVKGRFTISRDNSKNTLYLQMNSLRAEDTAVYYCARDPRKHVDRYFDYWGQGTLVTVSS
VL: QSVLTQPPSASGTPGQRVTISCSGSSSNIGSNTVSWYQQLPGTAPKLLIYADNNRPSGVPDRFSGSKSGTSASLAISGLRSEDEADYYCGTWDYSLSGYVLGGGTKLTVLG

What was measured:
[1] = target: T1, recombinant human CEACAM-1/CD66a …; assay: Octet QKe biolayer interferometry, anti-His (HIS1K) biosensors, antibody 6.25-400 nM
Protocol: The last well in each row was with a sample at the antibody concentration of 0 nM. Recombinant human CEACAM1 protein (R&D Systems; Cat. No. 2244-CM) was diluted to obtain a concentration of […], and dispensed into each well of another column at 200 μl/well.
As for the washing buffer, neutralization buffer and baseline buffer, Reagent/Kinetics buffer (10×) (Fortebio; Cat. No. 18-1092) were 1:10 diluted and dispensed into each well of a column in a row at 200 μl/well, and the regeneration buffer was dispensed into each well at 200 μl/well. Greiner 96-well plate was separately prepared, Reagent/Kinetics buffer (1×) was dispensed into each well of the number of biosensors to be used in a row at 200 μl/well, and Biosensors/Anti-His (His1K) (Fortebio; Cat. No. 18-5120) cassette was installed.

mCCM1 = target: T2, mCCM1; assay: ELISA on coated antigen (0.25 µg/ml), HRP anti-human IgG Fab, OD450
Text: All of the recombinant human CEACAM-1/CD66a protein (R&D systems; Cat. No. 2244-CM, HCCM1), recombinant human CEACAM-5/CD66e protein (R&D systems; Cat. No. 4128-CM, HCCM5), recombinant human CEACAM-6/CD66c protein (R&D systems; Cat. No. 3934-CM, HCCM6), recombinant human CEACAM-3/CD66d protein (Sino Biological; Cat. No. 11933-H08H, HCCM3), recombinant mouse PD-1 Fc chimeric protein (R&D systems; Cat. No. 1021-PD, mPD-1-Fc), recombinant CEACAM1-Fc (IgG4) protein (Mogam, in-house production, HCCM1-Fc), recombinant human CEACAM-1/CD66a protein Bulk (R&D systems; Cat. No. 2244-CM, HCCM1 (bulk)) and mouse CEACAM1/CD66a protein (Sino Biological; Cat. No. 50571-M08H, mouse CCM1) (2.5 μg each) were dissolved in 10 ml of PBS, respectively and dispensed into a 96-well plate (Nunc; Cat. No. 467679) at 100 μl/well, which was incubated overnight at 4° C. Thereafter, each well was treated with 300 μl of 1% (v/v) bovine serum albumin, which was incubated at 37° C. for 1 hour.
(§1) The diluted antibodies were dispensed into each well coated with each protein at 100 μl/well, which was incubated at 37° C. for 1 hour. Then, each well was washed 3 times with a washing buffer prepared by diluting 10 μl of Tween 20 (Sigma-Aldrich; Cat. No. P9146) in 990 μl of PBS. Thereafter, 2 μl of HRP-conjugated human anti-IgG-Fab antibody (anti-human IgG Fab; Sigma; Cat. No. A0293) was diluted in 10 ml of PBS, added to the wells at 100 μl/well, and incubated for 1 hour.
(§2) After completion of the reaction, the wells were washed three times with the washing buffer, and 100 μl of TMB solution was added to each well to induce color development. Then, 100 μl of 2 M H₂SO₄ was added to each well to stop the reaction, and the absorbance was measured at a wavelength of 450 nm.

HVISTA = target: T3, HVISTA; assay: ELISA on coated antigen (0.25 µg/ml), HRP anti-human IgG Fc, OD450
T3 construct: unrelated control antigen; also called human B7-H5/Gi24/VISTA protein (Sino Biological; Cat. No. 13482-H08H); not shown: the vendor's polyhistidine tag
T3 sequence (chain, as listed by the source limits assumed): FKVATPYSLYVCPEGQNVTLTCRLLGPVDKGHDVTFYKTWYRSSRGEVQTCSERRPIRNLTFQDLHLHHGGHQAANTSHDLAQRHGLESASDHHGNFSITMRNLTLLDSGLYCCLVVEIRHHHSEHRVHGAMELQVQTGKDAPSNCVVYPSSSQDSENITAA
Text: (§3) All of the recombinant human CEACAM-1/CD66a protein (R&D systems; Cat No. 2244-CM, HCCM1), recombinant human CEACAM-5/CD66e protein (R&D systems; Cat. No. 4128-CM, HCCM5), recombinant human CEACAM-6/CD66c protein (R&D systems; Cat. No. 3934-CM, HCCM6), recombinant human CEACAM-3/CD66d protein (Sino Biological; Cat. No. 11933-H08H, HCCM3), human B7-H5/Gi24/VISTA protein (Sino Biological; Cat. No. 13482-H08H, HVISTA), recombinant human CEACAM-1/CD66a protein Bulk (R&D systems; Cat. No. 2244-CM, HCCM1 (bulk)), recombinant human CEACAM1-N domain-Kappa protein (Mogam, in-house production, HCCM1-N domain-kappa), and BSA protein (2.5 μg each) were dissolved in 10 ml of PBS, respectively, and dispensed into a 96-well plate at 100 μl/well, which was incubated at 4° C. overnight. Thereafter, each well was treated with 300 μl of 1% (v/v) bovine serum albumin, and incubated at 37° C. for 1 hour.
as §1, with “and” for “which was”, “anti-IgG-Fc” for “anti-IgG-Fab”, “Fc, Sigma” for “Fab; Sigma;”, “A0170)” for “A0293)”
as §2

BSA = target: T4, BSA (bovine, UniProt P02769); assay: as above
T4 construct: blank antigen; also called BSA protein; bovine serum albumin
T4 sequence (P02769 25-607 limits assumed): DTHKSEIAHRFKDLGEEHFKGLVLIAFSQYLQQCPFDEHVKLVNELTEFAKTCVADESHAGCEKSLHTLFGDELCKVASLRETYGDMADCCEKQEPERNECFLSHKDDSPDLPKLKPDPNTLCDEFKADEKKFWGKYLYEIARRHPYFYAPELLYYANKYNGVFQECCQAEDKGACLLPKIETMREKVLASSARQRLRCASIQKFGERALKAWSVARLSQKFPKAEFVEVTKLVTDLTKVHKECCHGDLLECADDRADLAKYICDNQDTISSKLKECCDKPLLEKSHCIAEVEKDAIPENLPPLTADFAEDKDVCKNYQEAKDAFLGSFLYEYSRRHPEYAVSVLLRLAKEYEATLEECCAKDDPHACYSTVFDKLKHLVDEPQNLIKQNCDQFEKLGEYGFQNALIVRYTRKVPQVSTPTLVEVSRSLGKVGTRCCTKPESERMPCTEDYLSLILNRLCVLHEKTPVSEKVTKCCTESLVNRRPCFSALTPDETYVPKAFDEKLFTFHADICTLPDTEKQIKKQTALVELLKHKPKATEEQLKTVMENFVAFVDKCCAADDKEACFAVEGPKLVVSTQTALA
Text: as §3
as §1, with “and” for “which was”, “anti-IgG-Fc” for “anti-IgG-Fab”, “Fc, Sigma” for “Fab; Sigma;”, “A0170)” for “A0293)”
as §2

Binder | Kd [1] [nM] | koff [1] [s⁻¹] | kon [1] [M⁻¹ s⁻¹] | binding result (mCCM1) | binding result (HVISTA) | binding result (BSA)
B1 | 25.7 | 0.000321 | 19000 | – | – | –
B2 | – | – | – | no binding (tested: 3 µg/ml (single concentration)) | no binding (tested: 3 µg/ml (single concentration)) | no binding (tested: 3 µg/ml (single concentration))
